Data from paper PMC2821400.

Biological target: actin of the F-actin structures in focal adhesions of Vero cells (monkey (endogenous in Vero)) (UniProt Q76N69)
Experiment: FRAP (fluorescence recovery after photobleaching); GFP-L-plastin variants bleached in a 5 µm spot in focal adhesions of live Vero cells, 37°C; curves fitted with a two-binding-state model, reaction dominant regime; pseudo-association rates k*on = kon·Seq

fold change of k*2on against WT- and S5/E-L-plastin | k1off (dissociation rate, first quick binding state) | k*1on (pseudo-association rate, first quick binding state) | Feq (equilibrium normalized concentration of free molecules) | k2off (dissociation rate, second slow binding state) | k*2on (pseudo-association rate, second slow binding state) | Substance
2 fold lower | 0.073 s⁻¹ | 0.173 s⁻¹ | – | – | – | Ser5/Ala (S5/A) GFP-L-plastin, expressed in Vero cells (from UniProt P13796 1-627) (natural protein)
– | 0.612 s⁻¹ | 0.42 s⁻¹ | – | – | – | Ser5/Glu (S5/E) GFP-L-plastin, expressed in Vero cells (from UniProt P13796 1-627) (natural protein)
– | 0.616 s⁻¹ | 0.338 s⁻¹ | 0.513 | 0.03 s⁻¹ | 0.01 s⁻¹ | wild type (WT) L-plastin fused to GFP, expressed in Vero cells (from UniProt P13796 1-627) (natural protein)
